In patent EP1516629B1 (Genentech, Inc., dated 2013):
Residue numbers refer to the chain shown, from its start. In names and notes the source's numbering stands. Several values for one entry are separate records, joined by “and”; a condition that tells them apart may be missing. Identical values can stand only once. Like-named read-outs stand apart in the source and are kept apart here. Values belong to the binder of their own block, whether it stands above or below them.

Columns and labels:
human CD11a [1] = target: T1, human CD11a (human, UniProt P20701 26-1170); assay: saturation binding, human lymphocytes, donor 2, Kd(app)
T1 construct: whole, on cells; On cells it stands paired with CD18 as LFA-1; also called alpha subunit of LFA-1; LFA-1 (CD11a/CD18)

human CD11a [2] = target: T1, human CD11a; assay: saturation binding of 125I-antibody to human mononuclear cells, Kd(app)
human CD11a [3] = target: T1, human CD11a; assay: cell-based or functional assay
rhesus CD11a [4] = target: T2, rhesus CD11a (rhesus, UniProt H9Z8N3 26-1169); assay: cell binding EC50, rhesus against human CD11a
T2 construct: whole, on cells; also called rhCD11a
T2 sequence: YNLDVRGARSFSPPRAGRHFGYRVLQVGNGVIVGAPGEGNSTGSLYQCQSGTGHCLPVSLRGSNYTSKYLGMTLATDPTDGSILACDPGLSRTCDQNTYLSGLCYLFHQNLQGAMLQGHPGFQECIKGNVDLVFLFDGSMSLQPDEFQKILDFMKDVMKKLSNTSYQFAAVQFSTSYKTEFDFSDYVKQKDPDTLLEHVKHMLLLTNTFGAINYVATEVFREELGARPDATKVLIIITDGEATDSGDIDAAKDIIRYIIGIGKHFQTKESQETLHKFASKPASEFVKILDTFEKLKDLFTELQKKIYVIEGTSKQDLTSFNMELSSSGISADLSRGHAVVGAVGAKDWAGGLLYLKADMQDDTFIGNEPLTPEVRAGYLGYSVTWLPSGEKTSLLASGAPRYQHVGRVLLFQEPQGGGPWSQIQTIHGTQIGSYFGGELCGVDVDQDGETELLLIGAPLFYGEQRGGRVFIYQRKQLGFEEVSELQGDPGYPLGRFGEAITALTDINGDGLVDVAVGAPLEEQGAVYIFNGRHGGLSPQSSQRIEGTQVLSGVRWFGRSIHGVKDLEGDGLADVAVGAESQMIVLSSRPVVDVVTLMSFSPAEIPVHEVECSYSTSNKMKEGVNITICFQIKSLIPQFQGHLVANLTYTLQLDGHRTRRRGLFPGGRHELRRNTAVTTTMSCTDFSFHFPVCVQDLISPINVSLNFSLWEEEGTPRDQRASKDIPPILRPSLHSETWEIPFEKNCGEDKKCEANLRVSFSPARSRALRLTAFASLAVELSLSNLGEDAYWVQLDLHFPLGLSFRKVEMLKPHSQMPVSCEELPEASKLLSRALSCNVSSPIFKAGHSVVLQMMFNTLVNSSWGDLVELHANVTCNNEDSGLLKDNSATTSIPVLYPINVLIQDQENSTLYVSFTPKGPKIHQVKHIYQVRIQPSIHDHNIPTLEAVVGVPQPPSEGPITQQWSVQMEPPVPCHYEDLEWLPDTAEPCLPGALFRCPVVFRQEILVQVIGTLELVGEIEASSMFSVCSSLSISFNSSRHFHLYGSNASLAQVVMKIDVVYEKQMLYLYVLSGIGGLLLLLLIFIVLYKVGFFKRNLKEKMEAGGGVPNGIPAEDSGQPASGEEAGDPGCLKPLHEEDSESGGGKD

human CD11a [5] = target: T1, human CD11a; assay: saturation binding, human lymphocytes, donor 1, Kd(app)
human CD11a [6] = target: T1, human CD11a; assay: FACScan, Jurkat cells
human CD11a [7] = target: T1, human CD11a; assay: FACScan, Jurkat cells; remark: listed apart in the source
rhesus CD11a [8] = target: T2, rhesus CD11a; assay: binding to rhesus peripheral blood lymphocytes
rhesus CD11a [9] = target: T2, rhesus CD11a; assay: binding to rhesus peripheral blood lymphocytes; remark: listed apart in the source
human CD11a [10] = target: T1, human CD11a; assay: cell-based or functional assay; remark: listed apart in the source
human CD11a [11] = target: T1, human CD11a; assay: FACScan, Jurkat cells; remark: listed apart in the source
human CD11a [12] = target: T1, human CD11a; assay: FACScan, Jurkat cells; remark: listed apart in the source
rhesus CD11a [13] = target: T2, rhesus CD11a; assay: cell-based or functional assay
[14] = target: T3, rhesus-human chimeric CD11a (Rh/HuCD11a) (human (I-domain mutated to rhesus), UniProt P20701 26-1170); assay: cell-based or functional assay
T3 sequence (looked up): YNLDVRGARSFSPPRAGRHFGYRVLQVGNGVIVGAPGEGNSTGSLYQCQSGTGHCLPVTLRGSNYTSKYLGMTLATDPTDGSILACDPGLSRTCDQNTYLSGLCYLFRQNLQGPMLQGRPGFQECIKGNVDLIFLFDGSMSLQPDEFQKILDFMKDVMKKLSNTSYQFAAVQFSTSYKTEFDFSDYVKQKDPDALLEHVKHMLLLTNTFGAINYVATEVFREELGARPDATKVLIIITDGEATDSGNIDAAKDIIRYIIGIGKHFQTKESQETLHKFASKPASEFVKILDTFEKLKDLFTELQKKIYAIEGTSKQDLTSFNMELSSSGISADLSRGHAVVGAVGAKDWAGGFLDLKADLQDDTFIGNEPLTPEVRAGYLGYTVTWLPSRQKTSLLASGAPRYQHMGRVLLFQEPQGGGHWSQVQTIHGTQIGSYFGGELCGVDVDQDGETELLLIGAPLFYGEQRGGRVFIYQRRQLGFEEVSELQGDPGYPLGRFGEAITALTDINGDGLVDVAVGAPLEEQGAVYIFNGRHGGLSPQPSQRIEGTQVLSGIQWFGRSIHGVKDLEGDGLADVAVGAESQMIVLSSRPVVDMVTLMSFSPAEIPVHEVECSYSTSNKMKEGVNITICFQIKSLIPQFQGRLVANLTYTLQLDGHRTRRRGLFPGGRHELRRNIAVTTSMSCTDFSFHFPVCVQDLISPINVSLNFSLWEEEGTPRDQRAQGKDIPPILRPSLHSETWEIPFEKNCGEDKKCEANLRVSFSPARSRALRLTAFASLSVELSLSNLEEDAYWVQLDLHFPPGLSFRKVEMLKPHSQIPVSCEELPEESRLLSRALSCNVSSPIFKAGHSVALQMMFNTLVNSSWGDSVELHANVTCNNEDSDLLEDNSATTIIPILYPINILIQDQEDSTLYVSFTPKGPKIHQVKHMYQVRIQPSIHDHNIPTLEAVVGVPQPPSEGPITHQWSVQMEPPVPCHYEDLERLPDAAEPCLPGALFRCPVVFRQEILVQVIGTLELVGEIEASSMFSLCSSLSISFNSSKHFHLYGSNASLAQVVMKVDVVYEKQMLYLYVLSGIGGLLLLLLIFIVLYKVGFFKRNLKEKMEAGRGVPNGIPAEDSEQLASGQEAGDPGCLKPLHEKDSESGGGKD

rhesus CD11a [15] = target: T2, rhesus CD11a; assay: cell-based or functional assay; remark: listed apart in the source
rhesus CD11a [16] = target: T2, rhesus CD11a; assay: saturation binding, Kd(app)
rhesus CD11a [17] = target: T2, rhesus CD11a; assay: saturation binding, rhesus leukocytes, donor 1, Kd(app)
rhesus CD11a [18] = target: T2, rhesus CD11a; assay: cell-based or functional assay; remark: listed apart in the source
[19] = target: T3, rhesus-human chimeric CD11a (Rh/HuCD11a); assay: cell-based or functional assay; remark: listed apart in the source
rhesus CD11a [20] = target: T2, rhesus CD11a; assay: saturation binding, rhesus leukocytes, donor 3, with 1 mg/ml human IgG1, Kd(app)
rhesus CD11a [21] = target: T2, rhesus CD11a; assay: binding to rhesus peripheral blood lymphocytes; remark: listed apart in the source
rhesus CD11a [22] = target: T2, rhesus CD11a; assay: cell binding EC50 on rhesus CD11a against HuIgG1 on human CD11a

B1: murine MHM24 (antibody, V domains shown)
VH: EVQLQQPGAELMRPGASVKLSCKASGYSFTGHWMNWVRQRPGQGLEWIGMIHPSDSETRLNQKFKDKATLTVDKSSSSAYMQLSSPTSEDSAVYYCARGIYFYGTTYFDYWGQGTTLTVSS
VL: DVQITQSPSYLAASPGETISINCRASKTISKYLAWYQEKPGKTNKLLIYSGSTLQSGIPSRFSGSGSGTDFTLTISSLEPEDFAMYYCQQHNEYPLTFGTGTKLELKR
notes: Murine monoclonal antibody; also called muMHM24; murMHM24
- Kd (human CD11a [1]): 0.13 nM
- Kd (human CD11a [2]): 0.15 nM
- IC50, blocking of cell adhesion, Jurkat:HuK (human CD11a [3]): 0.09 nM
- fold reduction in binding against human CD11a (rhesus CD11a [4]): ~1000 fold
- Kd (human CD11a [5]): 0.16 nM

B2: chimeric MHM24 IgG1 (chIgG1) (antibody, V domains shown)
VH: B1 VH
VL: B1 VL
notes: Murine VL and VH fused to human constant light and heavy (IgG1) chains; also called chimeric IgG1; chlgG1
- EC50 F(ab)/EC50 F(ab)-2 (human CD11a [6]): 0.006 ratio
- IC50, blocking of cell adhesion, Jurkat:HuK (human CD11a [3]): 0.1 nM
- EC50 (human CD11a [7]): 0.0052 mg/L

B3: humanized MHM24 IgG1 (HuIgG1) (antibody, V domains shown)
VH: EVQLVESGGGLVQPGGSLRLSCAASGYSFTGHWMNWVRQAPGKGLEWVGMIHPSDSETRYNQKFKDRFTISVDKSKNTLYLQMNSLRAEDTAVYYCARGIYFYGTTYFDYWGQGTLVTVSS
VL: DIQMTQSPSSLSASVGDRVTITCRASKTISKYLAWYQQKPGKAPKLLIYSGSTLQSGVPSRFSGSGSGTDFTLTISSLQPEDFATYYCQQHNEYPLTFGQGTKVEIKR
notes: F(ab)-8 VL and VH fused to human constant light and IgG1 heavy chains; also called HulgG1; huMHM24
- Var.EC50/HuIgG1 EC50 (rhesus CD11a [8]): 1 ratio
- Kd (human CD11a [1]): 0.18 nM
- EC50 F(ab)/EC50 F(ab)-2 (human CD11a [6]): 0.004 ratio
- EC50 (rhesus CD11a [9]): 45.6 nM
- IC50, human mixed lymphocyte response assay (human CD11a [10]): 0.38 nM
- Kd (human CD11a [2]): 0.15 nM
- IC50, blocking of cell adhesion, Jurkat:HuK (human CD11a [3]): 0.13 nM
- EC50 (human CD11a [11]): 0.042 nM
- Var.EC50/HuIgG1 EC50 (human CD11a [12]): 1 ratio
- fold reduction in binding against human CD11a (rhesus CD11a [4]): ~1000 fold
- Kd (human CD11a [5]): 0.11 nM

B4: humanized MHM24 F(ab)-6 (Fab, V domains shown)
VH: B3 VH with Y27F, K76S, N77S
VL: DIQMTQSPSSLSASVGDRVTITCRASKTISKYLAWYQQKPGKAPKLLIYSGSTLQSGVPSRFSGSGSGTDFTLTISSLQPEDFATYYCQQHNEYPLTFGQGTKVEIK
- EC50 F(ab)/EC50 F(ab)-2 (human CD11a [6]): 0.012 ratio
- fold improvement in binding over F(ab)-5 (human CD11a [7]): 4 fold

B5: humanized MHM24 F(ab)-7 (Fab, V domains shown)
VH: B3 VH with K76S, N77S
VL: B4 VL
- EC50 F(ab)/EC50 F(ab)-2 (human CD11a [6]): 0.004 ratio
- fold improvement in binding over F(ab)-6 (human CD11a [7]): 3 fold

More lines, now with the values ahead:

- Var.EC50/HuIgG1 EC50 (rhesus CD11a [8]): 0.004 ratio
- fold less efficacious than MHM23, rhesus lymphocytes to human keratinocytes (rhesus CD11a [13]): 74 fold
- fold less efficacious than MHM23, rhesus lymphocytes to recombinant human ICAM-1 (rhesus CD11a [13]): 4 fold
- fold down from MHM23, Rh/HuCD11a-293 cells to human keratinocytes [14]: 4 fold
- IC50, rhesus mixed lymphocyte response assay (rhesus CD11a [15]): 23.4 nM
- fold down in Kd from HuIgG1 for human CD11a (rhesus CD11a [16]): ~26 fold
- Kd (rhesus CD11a [17]): 3.9 nM
- IC50, blocking of cell adhesion, RhLy:HuICAM (rhesus CD11a [18]): 5.3 nM
- IC50, blocking of cell adhesion, RhLy:HuK (rhesus CD11a [18]): 119 nM
- IC50, blocking of cell adhesion, Rh/HuCD11a:HuK [19]: 4.9 nM
- Kd (rhesus CD11a [20]): 2.8 nM and 2.7 nM
- EC50 (rhesus CD11a [21]): 0.19 nM
- fold improvement over the EC50 of HuIgG1 for rhesus CD11a (rhesus CD11a [21]): 240 to 415 fold
- fold weaker than the EC50 of HuIgG1 for human CD11a (rhesus CD11a [22]): 3 to 5 fold
B6: rhesus-binding MHM24 (RhIgG1), variant H2C12 (antibody, V domains shown)
VH: B3 VH with H52A, S54A, D55S, E57S
VL: B3 VL
notes: Human IgG1; also called H2C l2; H2Cl2

- Var.EC50/HuIgG1 EC50 (rhesus CD11a [8]): 0.002 ratio
- EC50 (rhesus CD11a [21]): 0.11 nM
- fold improvement over the EC50 of HuIgG1 for rhesus CD11a (rhesus CD11a [21]): 240 to 415 fold
- fold weaker than the EC50 of HuIgG1 for human CD11a (rhesus CD11a [22]): 3 to 5 fold
B7: H2C11 variant IgG1 (antibody, V domains shown)
VH: B3 VH with H52A, S54A, D55S, E57N
VL: B4 VL
notes: HuIgG1 variant, human IgG1

- EC50 (human CD11a [6]): 0.771 mg/L
- EC50 F(ab)/EC50 F(ab)-2 (human CD11a [6]): 1 ratio
- fold weaker EC50 than chimeric IgG1 (human CD11a [7]): 148 fold
B8: humanized MHM24 F(ab)-2 (Fab, V domains shown)
VH: B3 VH with Y27F, K74N
VL: B4 VL with T53S, Q55E
notes: F(ab) from E. coli

- binding result (human CD11a [6]): no binding
B9: humanized MHM24 F(ab)-1 (Fab, V domains shown)
VH: B3 VH with Y27F, N61A, Q62D, K63S, F64V, D66G, K74N
VL: B4 VL with T53S, Q55E
notes: F(ab) from E. coli (VH-CH1 and kappa light chain)
